Measurements taken from PMC7367192.

How the values were obtained:
vWF A1 domain = vWF A1 domain (UniProt P04275); experiment: MST; settings: MST: PBS (162 mM ionic strength), optionally +150 mM NaCl; EMSA: 0.5x TA (20 mM ionic strength), +10 or +40 mM NaCl; FCS after shear at 2000-4000 s-1; pH and …
[1] = molecular target: vWF A1 domain R1392A/R1395A/R1399A (UniProt P04275); experiment: MST; settings: MST: PBS (162 mM ionic strength), optionally +150 mM NaCl; EMSA: 0.5x TA (20 mM ionic strength), +10 or +40 mM NaCl; FCS after shear at 2000-4000 s-1; pH and …
wt vWF multimer = wt vWF multimer (UniProt P04275); experiment: FCS; settings: MST: PBS (162 mM ionic strength), optionally +150 mM NaCl, EMSA: 0.5x TA (20 mM ionic strength), +10 or +40 mM NaCl, FCS after shear at 2000-4000 s-1, pH and …
[2] = molecular target: eGFP full-length vWF dimer (UniProt P04275); experiment: EMSA; settings: fixed dimer 0.47 mg/ml, DNA titrated; MST: PBS (162 mM ionic strength), optionally +150 mM NaCl; EMSA: 0.5x TA (20 mM ionic strength), +10 or +40 mM NaCl; FCS after shear at 2000-4000 s-1; pH and …

Sequence | Kd (vWF A1 domain) | Kd [1] | binding signal (wt vWF multimer; shear 4000 s-1) | binding signal (wt vWF multimer; shear, 2000 s-1?) | Kd [2]
CATAAATCTTTGAATACCAAGTGTTAGAACCATCAACCATATCAACTTCCTTTATACATCTA / CTACATCACTTTCTTCATTATAAAATAAAAGGAAGTTGATATGGTTGATG [23 bp ds DNA] | 13 µM | 30 µM | 23 % bound | 21 % bound | –
GGCGTGCAGTGCCTTCGGCCGTGCGGTGCCTCCGTCACGCCTAAAATAAAA [ARC1172 ss DNA] | 10 µM | 130 µM | – | – | 0.001 µM
